Molecular target: T1, CTLA-4 (Homo sapiens, UniProt P16410)
T1 sequence (P16410 36-223): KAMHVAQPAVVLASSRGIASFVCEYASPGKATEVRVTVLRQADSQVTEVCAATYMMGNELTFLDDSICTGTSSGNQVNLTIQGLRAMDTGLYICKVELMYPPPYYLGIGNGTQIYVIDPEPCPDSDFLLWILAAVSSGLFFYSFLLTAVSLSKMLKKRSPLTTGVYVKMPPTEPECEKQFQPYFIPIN
Assay: ELISA binding of clones after Affinity Maturation with random library (Tables 10, 11)
Settings: CTLA-4 binding ELISA of clones after Affinity Maturation from random (NNS) library; signal/noise ratio; clones of 4th or 5th round
Procedure: After each round of Affinity Maturation, the cyclic peptide genes were recovered and subcloned into pET-Mal vector (FIG. 2) in the same manner as described above to perform base sequence analysis. For the 94 single colonies analyzed for sequence, E. coli transformants were inoculated into 100 μL of 2×YT medium containing ampicillin (final concentration 50 μg/mL), incubated at 37° C. for 3-5 hours (OD600=0.5-0.8), then added with IPTG (final concentration 0.5 mM) and incubated at 25° C. overnight. 10 μL of E. coli cultured medium was added with 90 μL of PBS and 40 μL of lysis reagent (20 μL BugBuster Protein Extraction Reagent (Novagen), 20 μL Lysozyme solution 2.5 mg/mL) to lyse E. coli cells for 1 hour at room temperature. The cell lysate was added with 40 μL of 12.5% skim milk solution (TBST) and blocked for 1 hour at room temperature. In parallel, antigen protein was immobilized overnight at 4° C. in 384-well plates at 100 ng/20 μL per well, and each well was washed twice with 100 μL/well of TBST, added with 100 μL/well of 5% skim milk solution (TBST) for blocking for 1 hour at room temperature, and washed twice with 100 μL/well of TBST to obtain antigen-immobilized plates. 20 μL/well of blocking-treated E. coli extract was added to the antigen-immobilized plates and gently stirred at room temperature using a plate mixer. After 1 hour, the plates were washed 5 times with 100 μL/well of TBST, 20 μL/well of anti-FLAG M2-HRP conjugate (1:2000 dilution, Sigma) was added and gently stirred on a plate mixer for 1 hour at room temperature. The plates were washed 5 times with 100 μL/well of TBST, and binding of cyclic peptides to the antigen was detected by 20 μL/well of chromogenic substrate (0.4 mg/mL 3,3′,5,5′-Tetramethyl-benzidine, 0.01% hydrogen peroxide). After 15 minutes of reaction at room temperature, the reaction was stopped with 20 μL/well of 2N HCl, and absorbance at 450 nm was measured using a plate reader (infinite F200: TECAN) (Table 5).
Oligo DNAs of a library were synthesized (see below), in which amino acid residues (positions 1, 4, 8, 10, +1 and +2) (corresponding to X1, […], X8, X10, X+1 and X+2) other than those essential or advantageous for CTLA-4 binding (2H, 3P, 5L, 6P, 7I, 9S, 11H, 12F) identified by alanine scanning were randomized (NNS).
Affinity Maturation was performed in the same manner as described above. The amount of biotinylated CTLA-4 immobilized on the magnetic beads was 10 pmol in the 1st round, 2 pmol in the 2nd round, and 1 pmol in the 3nd-5th rounds, respectively. The washing period was 2 hours for the 1st round, 19 hours for the 2nd round, 67 hours for the 3nd round, 140 hours for the 4th round, and 340 hours for the 5th round. Washing frequency was 1 time (2 hours) in the 1st round, 2 times (every 10 hours) in the 2nd round, 6 times (every 10 hours) in the 3rd round, 14 times (every 10 hours) in the 4th round, and 36 times (every 10 hours) in the 5th round.

Substance	ELISA S/N(SA)
C4m#19-5th2w-NNS6-55 (GGCMHPYLPIKSVHFCPL; C4m#19-5th2w-NNS6-55)	28.3
C4m#19-5th4w-NN6-65 (GGCWHPFLPILSLHFCSR; C4m#19-5th4w-NN6-65)	12.5
C4m#19-5th4w-NN6-94 (GGCLHPFLPIYSLHFCPC; C4m#19-5th4w-NN6-94)	5.0
C4m#19-5th4w-NN6-69-1 (GGCSHPFLPILSVHFCPF; C4m#19-5th4w-NN6-69-1)	24.9
C4m#19-5th2w-NNS6-75 (GGCWHPWLPIKSPHFCAL; C4m#19-5th2w-NNS6-75)	15.3
C4m3127-4th-NNS6-19 (GGCMHPSLPIWSWHFCPH; C4m3127-4th-NNS6-19) [Clone C4m3127-4th-NNS6-19]	4.1
C4m#19-5th4w-NN6-55-4 (GGCVHPSLPILSVHFCPR; C4m#19-5th4w-NN6-55-4)	29.5
C4m#19-5th2w-NNS6-74 (GGCMHPFLPIRSWHFCSR; C4m#19-5th2w-NNS6-74)	7.0
C4m#19-5th4w-NN6-1 (GGCRHPYLPIFSAHFCRS; C4m#19-5th4w-NN6-1)	16.1
C4m#19-5th4w-NN6-4 (GGCRHPYLPIVSRHFCPF; C4m#19-5th4w-NN6-4)	31.6
C4n#19-5th2w-NNS6-71 (GGCRHPYLPIASPHFCPG; left off: large carriers; small tags and cut ends)	22.9
C4m#19-5th4w-NN6-68 (GGCLHPWLPIRSRHFCSR; C4m#19-5th4w-NN6-68)	24.7
C4m#19-5th2w-NNS6-6 (GGCWHPYLPILSLHFCQR; C4m#19-5th2w-NNS6-6)	10.3
C4m#19-5th2w-NNS6-34 (GGCCHPFLPIYSVHFCAS; C4m#19-5th2w-NNS6-34)	5.0
C4m#19-5th2w-NNS6-43 (GGCRHPFLPIWSSHFCAA; C4m#19-5th2w-NNS6-43)	4.8

Next, values leading:

ELISA S/N(SA)	Substance
6.4	C4m#19-5th2w-NNS6-84 (GGCWHPFLPIVSFHFCPF; C4m#19-5th2w-NNS6-84)
29.5	C4m#19-5th4w-NN6-65-1 (GGCWHPFLPISSPHFCGR; left off: large carriers; small tags and cut ends)
6.3	C4m#19-5th2w-NNS6-4 (GGCFHPWLPISSLHFCPF; C4m#19-5th2w-NNS6-4)
12.9	C4m3127-4th-NNS6-64 (GGCLHPYLPIVSSHFCPF; C4m3127-4th-NNS6-64) [Clone C4m3127-4th-NNS6-64]
16.5	C4m3127-4th-NNS6-16 (GGCWHPYLPIFSVHFCPR; C4m3127-4th-NNS6-16) [Clone C4m3127-4th-NNS6-16]
30.0	C4m#19-5th4w-NN6-91 (GGCMHPYLRIISPHFCRG; C4m#19-5th4w-NN6-91)
16.6	C4m#19-5th4w-NN6-38 (GGCSHPFLPIFSLHFCPV; C4m#19-5th4w-NN6-38)
5.1	C4m#19-5th2w-NNS6-70 (GGCRHPFLPIVSWHFCAA; C4m#19-5th2w-NNS6-70)
34.7	C4m#19-5th2w-NNS6-14 (GGCWHPFLPIRSYHFCPW; C4m#19-5th2w-NNS6-14)
30.1	C4m#19-5th4w-NN6-44 (GGCRHPFLPIVSWHFCGR; C4m#19-5th4w-NN6-44)
19.7	C4m#19-5th2w-NNS6-90 (GGCRHPFLPIVSFHFCPF; C4m#19-5th2w-NNS6-90)
16.5	C4m#19-5th2w-NNS6-8 (GGCRHPFLPIFSLHFCAR; C4m#19-5th2w-NNS6-8)
15.8	C4m3127-4th-NNS6-12 (GGCSHPFLPIRSRHFCPF; C4m3127-4th-NNS6-12) [Clone C4m3127-4th-NNS6-12]
11.9	C4m3127-4th-NNS6-60 (GGCWHPFLPISSWHFCGL; C4m3127-4th-NNS6-60) [Clone C4m3127-4th-NNS6-60]
9.0	C4m#19-5th2w-NNS6-30 (GGCWHPFLPILSWHFCGR; C4m#19-5th2w-NNS6-30)
